Results on 2 molecules are retold here after publication PMC6358110, “Role of SpaO in the assembly of the sorting platform of a Salmonella type III secretion system” (PLoS Pathogens, 2019).

As usually defined, the stoichiometry N is a count of units in the complex or per binding partner.

The target of experiment [1] is FLAG-tagged SpaO^L67pBpa (Salmonella enterica Typhimurium SL1344) (UniProt P40699). Description: cross-linking; site-specific in vivo photo-cross-linking: pBpa in SpaO, live S. Typhimurium in PBS irradiated at 365 nm; whole cell lysates on SDS-PAGE, anti-FLAG western blot, with and without UV. (In general: A western blot detects proteins with antibodies after separation by electrophoresis.)

The target of experiment [2] is T1, SpaO^L, full length product of spaO, N-terminal His-tagged (S. Typhimurium, UniProt P40699 1-303).
T1 construct: SpaO, full length product (SpaO^L) of the spaO gene, S. Typhimurium SPI-1 T3SS sorting platform component; The same plasmid gives both SpaO^L and the internally translated SpaO^S; also called His-tagged SpaO; source: E. coli Lemo21(DE3) harboring plasmid pSB3775, purified (Ni-NTA, Superose 6); not shown: His tag, N-terminal, kept
T1 sequence: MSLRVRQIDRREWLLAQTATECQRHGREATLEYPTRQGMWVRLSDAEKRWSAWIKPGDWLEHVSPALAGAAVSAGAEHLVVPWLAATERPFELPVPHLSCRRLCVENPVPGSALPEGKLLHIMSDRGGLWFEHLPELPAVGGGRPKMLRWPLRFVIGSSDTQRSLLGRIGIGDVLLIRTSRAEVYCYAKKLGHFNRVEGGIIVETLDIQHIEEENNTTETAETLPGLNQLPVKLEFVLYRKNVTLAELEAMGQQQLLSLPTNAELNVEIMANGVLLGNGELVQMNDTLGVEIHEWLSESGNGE
Put plainly: SEC; N-terminal His-tagged SpaO made in E. coli, purified on Ni-NTA, run on Superose 6 10/300 GL; fractions analysed by SDS-PAGE and Coomassie; SpaO^L and SpaO^S made from one plasmid and co-purified. The conditions noted are these: both partners purified. A general note: Size exclusion chromatography separates by hydrodynamic size, large species first.

With “FLAG-tagged SpaO^L67pBpa (from UniProt P40699 1-303) (natural protein)”, in experiment [1], the stoichiometry N turned out to be 4.

B1: SpaO^S, short form of SpaO composed of the C-terminal 101 amino acids (domain or fragment)
chain: VETLDIQHIEEENNTTETAETLPGLNQLPVKLEFVLYRKNVTLAELEAMGQQQLLSLPTNAELNVEIMANGVLLGNGELVQMNDTLGVEIHEWLSESGNGE
notes: SpaO^S, internally translated product of spaO starting at the internal GTG codon 203; the C-terminal 101 amino acids of SpaO, S. Typhimurium; Translated from an internal GTG start codon, so the first residue is probably Met rather than Val (surmised); source: E. coli Lemo21(DE3) harboring plasmid pSB3775, co-purified with His-tagged SpaO^L (Ni-NTA, Superose 6)
Consider B1, for which the “stoichiometry N” value in experiment [2] came out at 2 SpaO^S per SpaO^L.
